# Experimental data taken from PMC7655804.
# Biological target: ferroportin from Philippine tarsier (Carlito syrichta / Tarsius syrichta) (Carlito syrichta (Tarsius syrichta, Philippine tarsier))
initial rate of Co^2+ transport by TsFpn proteoliposomes with both hepcidin and 11F9 Fab on the external side [min⁻¹],initial rate of Co^2+ transport by TsFpn proteoliposomes with hepcidin on both inside and outside of the liposomes [min⁻¹],Substance
0.032,–,human hepcidin
–,0.043,human hepcidin (peptide)
